According to article PMC10147665:

B1: endogenous PDPK1 [not stated (endogenous; cell line of this co-IP not named)] / endogenous PID1 [not stated (endogenous; cell line of this co-IP not named)] (parent)
chain 1: MFSLPLSLPLCEDTAFLPSKCCSSHKTIKQARTLIMIFLASGTHFQTMLKSKLNVLTLKKEPLPAVIFHEPEAIELCTTTPLMKTRTHSGCKVTYLGKVSTTGMQFLSGCTEKPVIELWKKHTLAREDVFPANALLEIRPFQVWLHHLDHKGEATVHMDTFQVARIAYCTADHNVSPNIFAWVYREINDDLSYQMDCHAVECESKLEAKKLAHAMMEAFRKTFHSMKSDGRIHSNSSSEEVSQELESDDG
chain 2: MARTTSQLYDAVPIQSSVVLCSCPSPSMVRTQTESSTPPGIPGGSRQGPAMDGTAAEPRPGAGSLQHAQPPPQPRKKRPEDFKFGKILGEGSFSTVVLARELATSREYAIKILEKRHIIKENKVPYVTRERDVMSRLDHPFFVKLYFTFQDDEKLYFGLSYAKNGELLKYIRKIGSFDETCTRFYTAEIVSALEYLHGKGIIHRDLKPENILLNEDMHIQITDFGTAKVLSPESKQARANSFVGTAQYVSPELLTEKSACKSSDLWALGCIIYQLVAGLPPFRAGNEYLIFQKIIKLEYDFPEKFFPKARDLVEKLLVLDATKRLGCEEMEGYGPLKAHPFFESVTWENLHQQTPPKLTAYLPAMSEDDEDCYGNYDNLLSQFGCMQVSSSSSSHSLSASDTGLPQRSGSNIEQYIHDLDSNSFELDLQFSEDEKRLLLEKQAGGNPWHQFVENNLILKMGPVDKRKGLFARRRQLLLTEGPHLYYVDPVNKVLKGEIPWSQELRPEAKNFKTFFVHTPNRTYYLMDPSGNAHKWCRKIQEVWRQRYQSHPDAAVQ

Variants of: B1
Assay: co-immunoprecipitation (IP: HA, IB: PID1), band densitometry
Conditions: with endogenous PID1 [not stated (endogenous; cell line of this co-IP not named)]; IGF-1 + (insulin -); read off a plot

Question: How did the response turn out when chain 2 Y9F Y373F Y376F was run?
Answer: Its response is 0.06.

Same assay, conditions: with endogenous PID1 [not stated (endogenous; cell line of this co-IP not named)]; insulin + (IGF-1 -); read off a plot

Question: For chain 2 Y9F Y373F Y376F, which response is on record?
Answer: The response was 0.06.

Same assay, conditions: with endogenous PID1 [not stated (endogenous; cell line of this co-IP not named)]; no growth factor (IGF-1 -, insulin -); read off a plot

Question: For chain 2 Y9F Y373F Y376F, which response is on record?
Answer: The response was 0.07.
